Data on 41 sequences can be found in the nanobody polyreactivity screen of Harvey et al. (2022).

The nature of this data set: yeast display, Sf9 membrane polyspecificity reagent, FACS + sequencing; frameworks hold sequencing errors. In a few lines: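 Polyreactivity labels are assigned by the sorting gate from which each nanobody was recovered. The gates were low and high (top ~1%), set on anti-HA fluorescence for expression and streptavidin fluorescence for reagent binding. Before sorting, galactose-induced (36–48 hours) yeast display cells were stained for 1 hour at 4 °C with 10% biotinylated, detergent-solubilized Sf9 membrane reagent.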
For the sequence “QVQLVESGGGLVQAGGSLRLSCAASGRIFGRYTMGWYRQAPGKERELVAGITSSGGRTYYADSVKGRFTISRDNANNTVYLQMNSLKPEDTAVYYCAAKRWSVPSLYNYWGQGTQVTVSS”, the “polyreactivity (PSR sort gate)” value is given as “high polyreactivity”.

As for “QVQLVESGGGLVQAGGSLRLSCAASGRIFGTDVMGWYRQAPGKERELVARITGGGSTNYADSVKGRFTISRDNAKNTVYFQMNSLKPEDTAVYYCARDYGPYLSPENPAPMDYWGQGTQVTVSS”, the “polyreactivity (PSR sort gate)” value is “low polyreactivity”.

Regarding “QVQLVESGGGLVQAGGSLRLSCAASGRIFGTNALGWYRQAPGKERELVATITRGGGNTYYADSVKGRFTISRDNAKNTVYLQMNSLKPEDTAVYYCAAKFHRFAWYSHYDYWGQGTQVTVSS”, the “polyreactivity (PSR sort gate)” value is recorded as “low polyreactivity”.

For the sequence “QVQLVESGGGLVQAGGSLRLSCAASGRIFGTNAMGWYRQAPGKERELVADITSGGSTNYADSVKGRFTISRDNAKNTVYLQMNSLKPEDTSVYYCAATWYGYYSRYDFYYWGQGTQVTVSS”, the “polyreactivity (PSR sort gate)” value was “low polyreactivity”.

In the case of “QVQLVESGGGLVQAGGSLRLSCAASGRIFGTNAMGWYRQAPGKESELVATITRGGGNTYYADSVKGRFTISRDNAKNTVYLQMISLKPEDTAVYYCGAKFHRFAWYSHYDYWGQGTQVTVSS”, the “polyreactivity (PSR sort gate)” value is listed as “low polyreactivity”.

With “QVQLVESGGGLVQAGGSLRLSCAASGRIFGTNAMGWYRQAPGKESELVATITRGGGNTYYADSVKGRFTISRDNAKNTVYLQMNSLKQEDTAVYYCNTRRLHGWLYGYEYWGQGTQVTVSS”, the “polyreactivity (PSR sort gate)” value was “low polyreactivity”.

Consider “QVQLVESGGGLVQAGGSLRLSCAASGRIFGTYAMGWYRQAPGKERELVAAISSSGTSTYYADSVKGRFTISRDNAKNTVYLQMNSLKPEDTAVYYCAADTVSFSILYDYWGQGTQVTVSS”, for which the “polyreactivity (PSR sort gate)” value is “low polyreactivity”.

On to “QVQLVESGGGLVQAGGSLRLSCAASGRIFGTYAMGWYRQAPGKERELVASITDRGDSTYADSVKGRFTISRDNAKNTVYLQMNSLKPEDTAVYYCAVGYNSKLAVGMYYWGQGTQVTVSS”, for which the “polyreactivity (PSR sort gate)” value is recorded as “low polyreactivity”.

On to “QVQLVESGGGLVQAGGSLRLSCAASGRIFGTYTMGWYRQAPGKERELVAAISRNGGSTYYADSVKGRITISRDNAKNTVYLQMNSLKPEDTAVYYCNAERRDDRGFDYWGQGTQVTVSS”, for which the “polyreactivity (PSR sort gate)” value is reported as “low polyreactivity”.

As to “QVQLVESGGGLVQAGGSLRLSCAASGRIFGVNAMGWYRQAPGKERELVAAISSGDSTYYADSVKGRFTISRDNAKNTVYLQMTCLKPEDTAVYYCAADVLGTTTTVGGFNYWGQGTQVTVSS”, the “polyreactivity (PSR sort gate)” value is reported as “low polyreactivity”.

As to “QVQLVESGGGLVQAGGSLRLSCAASGRIFGVNAMGWYRQAPGKERELVAAISSNGGRTYYADSVKGRFTISRDNAKNTVYLQMNSLKPEDTAVYYCATRSSVGARHYYWGQGTQVTVSS”, the “polyreactivity (PSR sort gate)” value is “high polyreactivity”.

For the sequence “QVQLVESGGGLVQAGGSLRLSCAASGRIFGVNAMGWYRQAPGKERELVAAISVSGDSTYYADSVKGRFTISRDNAKNTVYLQMNSLKPEDTAVYYCNAGFTFVPADLTDEYYWGQGTQVTVSS”, the “polyreactivity (PSR sort gate)” value was “low polyreactivity”.

For “QVQLVESGGGLVQAGGSLRLSCAASGRIFGVNAMGWYRQAPGKERELVADISSGGSTYYADSVKGRFTISRDNAKNTVNLQMNSLTPEYTAVYYCAVDKSVYVSYSFYFEYDYWGQGTQVTVSS”, the “polyreactivity (PSR sort gate)” value is listed as “low polyreactivity”.

Regarding “QVQLVESGGGLVQAGGSLRLSCAASGRIFGVYALGWYRQAPGKERELVAVISSGGSTKYADSVKGRFTISRDTAKNTVYLQMNSLKPEDTAVYYCAAADYRFWSRYDYWGQGTQVTVSS”, the “polyreactivity (PSR sort gate)” value is given as “low polyreactivity”.

Turning to “QVQLVESGGGLVQAGGSLRLSCAASGRIFGVYAMGWSRQAPGKERELVATITSGGSTSYADSVKGRFTISRDNAINTVFLQMNSLKPEDTAVYYCNAPYSFFWQQMNYWGQGTQVTVSS”, the “polyreactivity (PSR sort gate)” value is “low polyreactivity”.

As to “QVQLVESGGGLVQAGGSLRLSCAASGRIFGVYAMGWYRQAPGKERELVAAIYSGSSTYYADSVKGRFTISRDNAKNTVYLQMNSLKPEDTAVYYCNADTPYWVRWKYDYWGQGTQVTVSS”, the “polyreactivity (PSR sort gate)” value was “low polyreactivity”.

Take “QVQLVESGGGLVQAGGSLRLSCAASGRIFGVYAMGWYRQAPGKERELVADITRGGGSTYYADSVKGRFTISRDNAKNTVYLQMNSLKPEDTAVYYCAARYRFQRGGYYYWGQGTQVTVSS”: the “polyreactivity (PSR sort gate)” value is reported as “high polyreactivity”.

On to “QVQLVESGGGLVQAGGSLRLSCAASGRIFGVYAMGWYRQAPGKERELVAGINGGDSTYYADSVKGRFTISRDNAKNTVYLQMNSLKPEDTAVYYCAAEADESGSNYDYWGQGTQVTVSS”, for which the “polyreactivity (PSR sort gate)” value is “low polyreactivity”.

With “QVQLVESGGGLVQAGGSLRLSCAASGRIFGWNAMGWYRQAPGKERELVAGISSSGGSTYYADSVKGRFTISRDNAKNTVYLQMNSLKPEDTAVYYCARRHYVGYYGYYYWGQGTQVTVSS”, the “polyreactivity (PSR sort gate)” value is on record as “high polyreactivity”.

Regarding “QVQLVESGGGLVQAGGSLRLSCAASGRIFGWYAMGWYRQAPGKERELVAAISRGGGSTYYADSVKGRFTISRDNAKNTVYLQMNSLKPEDTAVYYCARDGGSLSHYHVGTGKFGYWGQGTQVTVSS”, the “polyreactivity (PSR sort gate)” value was “low polyreactivity”.

Turning to “QVQLVESGGGLVQAGGSLRLSCAASGRIFGWYAMGWYRQAPGKERELVAAISSGGRTNYADSVKGRFTISRDNAKNTVYLQMNSLKPEDTAVYYCNARRTYLPYKFGYDYWGQGTQVTVSS”, the “polyreactivity (PSR sort gate)” value is given as “low polyreactivity”.

On to “QVQLVESGGGLVQAGGSLRLSCAASGRIFGYNAMGWYRQAPGKERDLVAAITTSGGSTYYADSVKGRFTISRDNAKNTVYLQMNSLKPEDTAVYYCARDSLQVFYPYASDDYWGQGTQVTVSS”, for which the “polyreactivity (PSR sort gate)” value was “low polyreactivity”.

With “QVQLVESGGGLVQAGGSLRLSCAASGRIFGYNAMGWYRQAPGKERELVAAIRRRGGTTYYADSVKGRFTISRDNAKNTVYLQMNSLKPEDTAVYYCNTKYPGRGYYWGQGTQVTVSS”, the “polyreactivity (PSR sort gate)” value is on record as “high polyreactivity”.

Regarding “QVQLVESGGGLVQAGGSLRLSCAASGRIFGYNAMGWYRQAPGKERELVAAISSTGNTYYADSVKGRFTISRDNAKNTVYLQMNSLKPEDTAVYYCARSWLYSQRRYDYWGQGTQVTVSS”, the “polyreactivity (PSR sort gate)” value is reported as “low polyreactivity”.

As to “QVQLVESGGGLVQAGGSLRLSCAASGRIFGYNAMGWYRQAPGKERELVAAITNGGSTNYADSVKGRFTISRDNAKNTVYFHMNSLKPEDTAVYYCAVKWYPPGHDYWGQGTQVTVSS”, the “polyreactivity (PSR sort gate)” value is given as “low polyreactivity”.

For the sequence “QVQLVESGGGLVQAGGSLRLSCAASGRIFGYYAMGGYRQAPGKERELVASISYSGASSYYADSVKGRFTISRDNAKNTVYLQMNSLKPEDTAVYYCNTDGDDFFHVIYDYWGQGTQVTVSS”, the “polyreactivity (PSR sort gate)” value is “low polyreactivity”.

For “QVQLVESGGGLVQAGGSLRLSCAASGRIFGYYAMGWSRQAPGKERELVAAISSDGSTYYADSVKGRFTISRDNAENTVYLQMNSLKPEDTAVYYCAKEGRWDSYGYSAQPFYYWGQGTQVTVSS”, the “polyreactivity (PSR sort gate)” value was “low polyreactivity”.

Consider “QVQLVESGGGLVQAGGSLRLSCAASGRIFGYYAMGWYIQAPGKERELVAGIDWSGGNTYYADSVKGRFTISRDNAKNTVYLQMNSLKPEDTAVYYCNTEGGRDTAWYDYWGQGTQVTVSS”, for which the “polyreactivity (PSR sort gate)” value is recorded as “low polyreactivity”.

Regarding “QVQLVESGGGLVQAGGSLRLSCAASGRIFGYYAMGWYRQAPGKERELVAAISSSGTSTYYADSVKGRFTISRDNAKNTVYLQMNSLKPEDTAVYYCAAYTYYEGDYWGQGTQVTVSS”, the “polyreactivity (PSR sort gate)” value is “low polyreactivity”.

In the case of “QVQLVESGGGLVQAGGSLRLSCAASGRIFGYYAMGWYRQAPGKERELVAAISYNVVSTNYADSVKGRFTISRDNPKNTVYLQMNSLKPEDTAVYYCAADYGRPYTAFDYWGQGTQVTVSS”, the “polyreactivity (PSR sort gate)” value was “low polyreactivity”.

“QVQLVESGGGLVQAGGSLRLSCAASGRIFGYYAMGWYRQAPGKERELVAAITINGGRTYYADSVKGRFTISRDNAKNTVYLQMNSLKPEDTAVYYCTATSRYNRLGYWGQGTLVTVSS”: the “polyreactivity (PSR sort gate)” value is “high polyreactivity”.

“QVQLVESGGGLVQAGGSLRLSCAASGRIFGYYAMGWYRQAPGKESELVATINSVGSTNYADSVKGRFTISRDNAKNTVYLQMNSLKPEDTAVYYCATDSAYTFFTYRLWRHGYWGQGTQVTVSS”: the “polyreactivity (PSR sort gate)” value was “low polyreactivity”.

Regarding “QVQLVESGGGLVQAGGSLRLSCAASGRIFGYYTMGSYRQAPGKEMELVATINWSGGSTYYADSVKGRFTISRDNAKNTVYLQMNSLKPEDTAVYYCADRPALWGRYRGYDYWGQGTQVTVSS”, the “polyreactivity (PSR sort gate)” value was “high polyreactivity”.

As to “QVQLVESGGGLVQAGGSLRLSCAASGRIFGYYVMGWYRQAPGKERELVAAISRSGGSTYYADSVKGRFTISRDNAKNTVYLEMNSLKPEDTAVYYCANYSPRYPNYDYWGQGTQVTVSS”, the “polyreactivity (PSR sort gate)” value is given as “high polyreactivity”.

Consider “QVQLVESGGGLVQAGGSLRLSCAASGRIFHKYAMGWYRQAPGKERELVATIRSDDITYYADSVKGRFTISRDNAKNTVYLQMNSLKPEDTAVYYCAAYFWRYSSLYYYWGQGTQVTVSS”, for which the “polyreactivity (PSR sort gate)” value is on record as “high polyreactivity”.

As for “QVQLVESGGGLVQAGGSLRLSCAASGRIFHQYAMGWYRQAPGKERELVAAITTRGTSTYYADSVKGRFTISRDNAKNTVYLQMNSLKPEDTAVYYCAAKFFGSVGHVAGDYWGQGTQVTVSS”, the “polyreactivity (PSR sort gate)” value is on record as “high polyreactivity”.

For “QVQLVESGGGLVQAGGSLRLSCAASGRIFHRYAMGWYRQAPGKERELVAAISYSTARTYYADSVKGRFTISRDNAKNTVYLQMNSLKPEDTAVYYCAARYQGGYDYWGQGTQVTVSS”, the “polyreactivity (PSR sort gate)” value is recorded as “high polyreactivity”.

As to “QVQLVESGGGLVQAGGSLRLSCAASGRIFHVYAMGWYRQAPGKERELVAAISSGDRTYYADSVKGRFIISRDNAKNTVYLQMNSLKPEDTAVYYCAATAQYYHYHLAKYDYWGQGTQVTVSS”, the “polyreactivity (PSR sort gate)” value is “low polyreactivity”.

Take “QVQLVESGGGLVQAGGSLRLSCAASGRIFHWYVMGWYRQAPGKERELVAAISWSSGSTYADSVKGRFTISRDNAKNTVYLQMNSLKPEDTAVYYCNAKTYYPPFGYWGQGTQVTVSS”: the “polyreactivity (PSR sort gate)” value is “low polyreactivity”.

With “QVQLVESGGGLVQAGGSLRLSCAASGRIFHYYAMGWYRQAPGTERELVAAITSSGGSTYYADSVKGRFTISRDNAKNTVYLQMNSLKPEDTAVYYCAAGLIVGRFLRYDYWGQGTQVTVSS”, the “polyreactivity (PSR sort gate)” value is recorded as “high polyreactivity”.

On to “QVQLVESGGGLVQAGGSLRLSCAASGRIFIANTMGCYRQAPGKERELVAAITQRGDSTYYADSVKGRFTISRDNAKNTVYLQMNSLKPEDTAVYYCAARYYLSSYVRYNYWGQGTQVTVSS”, for which the “polyreactivity (PSR sort gate)” value is on record as “high polyreactivity”.
